The values that follow come from US20090285813A1.

The assay has as its target human CD3 (human) (UniProt P07766). Kind of assay: cell-based or functional assay.

Sequence of human CD3 (human) (P07766 23-207): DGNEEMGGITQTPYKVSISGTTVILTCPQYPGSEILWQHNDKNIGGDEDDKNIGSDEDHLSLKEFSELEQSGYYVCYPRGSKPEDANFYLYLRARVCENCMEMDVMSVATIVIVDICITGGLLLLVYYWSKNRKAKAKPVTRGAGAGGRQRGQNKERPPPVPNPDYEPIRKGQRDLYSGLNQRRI

As to “Irrelevant human IgG1 (EMD Biosciences Cat. 400120) (antibody)”, the Apo-One Apoptosis Assay, 12.5 ng/ml was 250; the Apo-One Apoptosis Assay, 25 ng/ml was 259; the Apo-One Apoptosis Assay, 50 ng/ml stood at 234.
